Laboratory results taken from patent publication US12624118B2, “Trispecific binding molecules against BCMA and uses thereof” (Novartis AG, priority 2019, dated 2026).

T1: recombinant human CD2 (Homo sapiens, UniProt P06729)
T1 construct: transiently produced and purified from HEK293 cells along with the CD2 extracellular domain; made in house; host or cells: HEK293 / HEK293F cells (transient expression)
T1 sequence (P06729 with tags, fused parts or gaps): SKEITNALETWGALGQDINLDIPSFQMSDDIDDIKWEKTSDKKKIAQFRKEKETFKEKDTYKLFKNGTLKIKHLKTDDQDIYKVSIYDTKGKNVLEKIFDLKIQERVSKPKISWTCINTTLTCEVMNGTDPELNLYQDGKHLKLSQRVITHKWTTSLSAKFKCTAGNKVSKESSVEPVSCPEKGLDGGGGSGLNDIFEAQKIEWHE


Tests used:
[1] = Thermal stability by differential scanning fluorimetry (DSF); assay type: physicochemical; conditions: Sypro Orange; 25° C. to 95° C. at 0.5° C./minute
Description: Disulfide stabilized variants were assessed for improved thermal stability using both differential scanning calorimetry (DSC) and differential scanning fluorimetry (DSF) using standard techniques. For DSF, 1-3 ug of each construct was add to 1× Sypro Orange (Thermo-Fisher) in 25 ul total volume in 96-well PCR plate. Using a Bio-Rad CFX96 RT-PCR system equipped with C1000 Thermal Cycler, the temperature was increased from 25° C. to 95° C. at 0.5° C./minute and the fluorescence monitored. The manufacturer-supplied software was used to determine Tm.

[2] = Thermal stability by differential scanning calorimetry (DSC); assay type: physicochemical; conditions: HBS, 0.5 mg/mL; 25° C. to 100° C. at 1° C./minute
Description: For DSC, all samples were dialyzed into HEPES-buffered saline (HBS) and diluted to final concentration of 0.5 mg/mL. Tm and Tonset were determined using a MicroCal VP-Capillary DSC system (Malvern) by increasing temperature from 25° C. to 100° C. at 1° C./minute with a filtering period of 2 seconds and a mid-gain setting.

recombinant human CD2 = biological target: T1, recombinant human CD2; experiment: Isothermal calorimetry (ITC) binding affinity of CD58 variants; conditions: recombinant human CD2 (100 μM) titrated into 10 μM CD58 variant in HBS, apparent KD
Description: To ensure the binding affinity remained uncompromised by the additional of the stabilizing disulfide variance, isothermal calorimetry (ITC) was performed on the resulting recombinant CD58 proteins to determine their apparent KD and binding stoicheometry (n) to recombinant human CD2.
Briefly, recombinant human CD2 and recombinant human CD58 variants were dialyzed into HEPES-buffered saline (HBS). CD2 was diluted to final concentration of 100 μM, CD58 variants were diluted to 10 μM. CD2 was titrated into 10 μM of CD58 variants via multiple injections and ΔH (kcal/mole) determined using a MicroCal VP-ITC isothermal titration calorimeter (Malvern). Titrations of CD2 into HBS were used as a reference and KD and n determined from the resulting data.

[3] = tested on: BCMA+ multiple myeloma cell lines; experiment: In vitro RTCC assays of anti-BCMA x anti-CD3 bispecific antibodies; assay type: cell-based; conditions: tested as anti-BCMA x anti-CD3 bispecific antibodies having VH and VL sequences of the binder
Source text: (§1) Anti-BCMA x anti-CD3 bispecific antibodies having VH and VL sequences of AB1, AB2, and AB3 were produced.

[4] = tested on: KMS11-Luc multiple myeloma orthotopic tumor; experiment: KMS11-Luc multiple myeloma orthotopic tumor model; assay type: in vivo; conditions: tested as anti-BCMA x anti-CD3 bispecific antibodies having VH and VL sequences of the binder; NSG mice
Source text: as §1

| Kd (recombinant human CD2) | Molecule | Tm (° C.) By Differential Scanning Fluorimetry (DSF) [1] | Tm (° C.) By Differential Scanning Calorimetry (DSC) [2] | Tmonset (° C.) By Differential Scanning Calorimetry (DSC) [2] | activity in in vitro RTCC assays [3] | anti-tumor activity [4] |
| --- | --- | --- | --- | --- | --- | --- |
| – | IgV V54C_G88C: CD58 domain 1 with V54 and G88 replaced by cysteines to form a disulfide bridge (protein) SQQIYGVVYGNVTFHVPSNVPLKECLWKKQKDKVAELENSEFRAFSSFKNRVYLDTVSCSLTIYNLTSSDEDEYEMESPNITDTMKFFLYVLESGGGGSHHHHHHHH | 76.5 °C | 80.9 °C | 66.7 °C | – | – |
| – | IgV V45C_M114C: CD58 domain 1 with V45 and M114 replaced by cysteines to form a disulfide bridge (protein) SQQIYGVVYGNVTFHCPSNVPLKEVLWKKQKDKVAELENSEFRAFSSFKNRVYLDTVSGSLTIYNLTSSDEDEYEMESPNITDTCKFFLYVLESGGGGSHHHHHHHH | 63.5 °C | 72.5 °C | 49.6 °C | – | – |
| – | IgV V45C_M105C: CD58 domain 1 with V45 and M105 replaced by cysteines to form a disulfide bridge (protein) SQQIYGVVYGNVTFHCPSNVPLKEVLWKKQKDKVAELENSEFRAFSSFKNRVYLDTVSGSLTIYNLTSSDEDEYECESPNITDTMKFFLYVLESGGGGSHHHHHHHH | 48.5 °C | 66.8 °C | 43.9 °C | – | – |
| – | CD58_IgV: IgV domain (domain 1) of human CD58, without stabilizing disulfide (protein) SQQIYGVVYGNVTFHVPSNVPLKEVLWKKQKDKVAELENSEFRAFSSFKNRVYLDTVSGSLTIYNLTSSDEDEYEMESPNITDTMKFFLYVLESGGGGSHHHHHHHH | 48.5 °C | 60.9 °C | 46.3 °C | – | – |
| 570 nM | CD58 Full ECD: recombinant human CD58 full extracellular domain with C-terminal 8×his tag (protein, C-terminal 8xHis tag, recombinant human CD58 full extracellular domain with C-terminal 8×his tag) SQQIYGVVYGNVTFHVPSNVPLKEVLWKKQKDKVAELENSEFRAFSSFKNRVYLDTVSGSLTIYNLTSSDEDEYEMESPNITDTMKFFLYVLESLPSPTLTCALTNGSIEVQCMIPEHYNSHRGLIMYSWDCPMEQCKRNSTSIYFKMENDLPQKIQCTLSNPLFNTTSSIILTTCIPSSGHSRHRGGGGSHHHHHHHH | 59.5 °C | 65.0 °C | 48.8 °C | – | – |
| – | AB3: anti-BCMA binder, AB3 Family, derived from parental PI-61 (antibody, V domains shown) VH: QVQLVESGGGVVQPGRSLRLSCAASGFTVSSYGMHWVRQAPGKGLEWVAVISYTGSNKYYADSVKGRFTISRDNSKNTLYLQMNSLRAEDTAVYYCGGSGYALHDDYYGLDVWGQGTLVTVSS VL: QSALTQPASVSGSPGQSITISCTGTSSDVGGYNYVSWYQQHPGKAPKLMIYDVSNRLRGVSNRFSGSKSGNTASLTISGLQAEDEADYYCSSYTSSSALYVFGSGTKVTVL | – | – | – | active | anti-tumor activity |
